Measurements from article PMC10123090, “The MksG nuclease is the executing part of the bacterial plasmid defense system MksBEFG” (Nucleic Acids Research, 2023).
Each block holds one molecule with its values, some of them ahead of it.

Key:
MksBEF = target: T1, MksBEF (Corynebacterium glutamicum, UniProt Q8NLY2); test: EnzChek phosphate release; type: biochemical; details: 2 mM Mg-ATP, 30 °C, with or without 50 ng/ul plasmid DNA (pBHK18)
T1 construct: gene Cgl2804; with Kleisin subunit MksF (MukF/JetA homologue); Kite subunit MksE (MukE/JetB homologue)
T1 sequence (Q8NLY2 entry or part of it, one chain of several): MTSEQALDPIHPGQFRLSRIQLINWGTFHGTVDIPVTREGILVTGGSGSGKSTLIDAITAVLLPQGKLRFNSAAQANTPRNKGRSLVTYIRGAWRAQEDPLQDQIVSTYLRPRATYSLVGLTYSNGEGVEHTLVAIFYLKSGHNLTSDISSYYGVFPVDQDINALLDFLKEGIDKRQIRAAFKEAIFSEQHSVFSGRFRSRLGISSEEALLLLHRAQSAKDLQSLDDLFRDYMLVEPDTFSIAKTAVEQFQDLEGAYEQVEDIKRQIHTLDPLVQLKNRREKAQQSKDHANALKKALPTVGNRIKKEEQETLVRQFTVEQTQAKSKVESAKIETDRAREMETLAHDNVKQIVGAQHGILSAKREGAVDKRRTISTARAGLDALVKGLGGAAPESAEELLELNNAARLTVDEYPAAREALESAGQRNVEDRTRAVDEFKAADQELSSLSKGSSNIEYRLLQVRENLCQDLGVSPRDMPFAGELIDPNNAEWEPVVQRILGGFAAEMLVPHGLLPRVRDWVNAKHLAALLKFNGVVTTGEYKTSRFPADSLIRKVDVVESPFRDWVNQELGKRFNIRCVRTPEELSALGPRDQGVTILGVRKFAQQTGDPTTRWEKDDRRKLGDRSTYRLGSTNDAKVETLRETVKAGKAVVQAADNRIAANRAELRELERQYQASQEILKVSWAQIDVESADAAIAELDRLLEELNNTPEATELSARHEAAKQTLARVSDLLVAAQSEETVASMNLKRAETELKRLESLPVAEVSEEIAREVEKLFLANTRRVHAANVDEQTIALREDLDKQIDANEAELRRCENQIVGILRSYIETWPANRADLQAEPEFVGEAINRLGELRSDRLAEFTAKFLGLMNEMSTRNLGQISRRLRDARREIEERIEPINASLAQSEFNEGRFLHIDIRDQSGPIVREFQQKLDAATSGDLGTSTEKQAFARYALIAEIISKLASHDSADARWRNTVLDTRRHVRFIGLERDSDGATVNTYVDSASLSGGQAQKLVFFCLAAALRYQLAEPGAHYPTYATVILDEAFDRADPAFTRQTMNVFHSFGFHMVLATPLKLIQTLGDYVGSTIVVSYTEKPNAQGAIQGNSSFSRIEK
T1 sequence (Q8NLY1 entry or part of it, one chain of several, further chain): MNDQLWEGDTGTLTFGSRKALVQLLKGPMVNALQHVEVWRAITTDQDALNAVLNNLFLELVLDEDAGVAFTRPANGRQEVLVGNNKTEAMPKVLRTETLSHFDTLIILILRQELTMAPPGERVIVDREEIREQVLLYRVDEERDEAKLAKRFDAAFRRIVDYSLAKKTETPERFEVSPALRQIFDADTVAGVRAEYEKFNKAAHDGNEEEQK

[1] = target: MksB (His10-MksB), condensin-like ATPase subunit of the Corynebacterium glutamicum MksBEFG complex (Corynebacterium glutamicum) (UniProt Q8NLY2); test: BLI; BLItz, streptavidin biosensors; biotinylated bait immobilised (MksE 25 ug/ml, MksB 50 ug/ml or MksG 100 ug/ml), MksF as analyte 1-5 uM; BLI buffer 10 mM Na2HPO4, 137 mM NaCl, 2.7 mM KCl, 1.8 mM KH2PO4, 10 mM MgCl2, 5% glycerol, pH 7.4; 1:1 binding model
Sequence of MksB (His10-MksB), condensin-like ATPase subunit of the Corynebacterium glutamicum MksBEFG complex (Corynebacterium glutamicum) (Q8NLY2 entry or part of it, one chain of several): as the sequence (Q8NLY2 entry or part of it, one chain of several) above

[2] = target: MksE (His6-MksE), kite subunit of the Corynebacterium glutamicum MksBEFG complex (Corynebacterium glutamicum) (UniProt Q8NLY1); test: as above
Sequence of MksE (His6-MksE), kite subunit of the Corynebacterium glutamicum MksBEFG complex (Corynebacterium glutamicum) (Q8NLY1 entry or part of it, one chain of several): as the sequence (Q8NLY1 entry or part of it, one chain of several, further chain) above

[3] = target: the molecule itself; test: crystal structure; X-ray, 4.6 A, solved by molecular replacement with AlphaFold2 domain models; crystals in 10% PEG 6K, 30% ethanol, 10 mM sodium acetate
[4] = target: T2, MksF (His6-MksF), kleisin subunit of the Corynebacterium glutamicum MksBEFG complex (Corynebacterium glutamicum, UniProt Q8NLY0 1-495); test: BLI; BLItz, streptavidin biosensors; biotinylated bait immobilised (MksE 25 ug/ml, MksB 50 ug/ml or MksG 100 ug/ml), MksF as analyte 1-5 uM; BLI buffer 10 mM Na2HPO4, 137 mM NaCl, 2.7 mM KCl, 1.8 mM KH2PO4, 10 mM MgCl2, 5% glycerol, pH 7.4; 1:1 binding model; details: both partners purified
T2 construct: MksF of Corynebacterium glutamicum, gene mksF (cg3106), amplified from genomic DNA and ligated NdeI/BamHI into pET28a (plasmid pMG001); Analyte in the BLI experiments with constants; biotinylated (EZ-Link NHS-PEG4, ratio 3:1) where used as bait; Also purified together with MksE; also called cg3106; source: E. coli BL21 (DE3) pLysS, purified (Ni-NTA, SEC)
T2 sequence (looked up): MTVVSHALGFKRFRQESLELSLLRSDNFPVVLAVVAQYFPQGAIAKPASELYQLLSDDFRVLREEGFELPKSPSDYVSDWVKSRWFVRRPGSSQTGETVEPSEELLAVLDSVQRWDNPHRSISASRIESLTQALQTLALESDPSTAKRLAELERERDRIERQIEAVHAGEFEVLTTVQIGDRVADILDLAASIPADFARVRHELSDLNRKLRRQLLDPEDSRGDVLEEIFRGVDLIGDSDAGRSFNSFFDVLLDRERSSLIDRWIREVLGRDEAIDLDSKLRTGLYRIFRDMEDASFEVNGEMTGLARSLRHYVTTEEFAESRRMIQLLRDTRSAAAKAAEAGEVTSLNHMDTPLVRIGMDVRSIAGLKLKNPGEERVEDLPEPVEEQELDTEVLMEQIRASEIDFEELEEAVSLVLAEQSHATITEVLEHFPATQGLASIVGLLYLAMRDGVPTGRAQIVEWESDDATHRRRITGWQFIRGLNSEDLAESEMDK

Molecule: Nc1ncnc2c1ncn2[C@@H]1O[C@H](COP(=O)(O)OP(=O)(O)OP(=O)(O)O)[C@@H](O)[C@H]1O [ATP]
EnzChek phosphate release (MksBEF): kleisin subunit MksF and the kite subunit MksE stimulated the ATPase activity of MksB

B1: MksG, 6xHis-SUMO-tagged construct for crystallization (enzyme, Corynebacterium glutamicum)
chain: MPLFIDDALHRSKKYFHAHLSELLLGEFAGLSLPLHPPTAAKAAADIDATREFIRQWEGRDDVEYAIRNWSPVGLGKTEVPVRLTLNTTEELVVFAQVEDEWSSLHERFSQLSGFTAEVVAKHVSLWRSLSNDDLSKAVLVVDWFLKHPNSGLLKRAVAVEGVHTKWLENHRVLIETLVADKRGEPGRADLGLGDAEARVRLRFHSVDAPAGLTDIEVPLSNLCELQEPQVILMVENLDSFLALPTWPGVTIAWGAGYRAVDIVRGPYFSNGRLLYWGDLDLDGFKILDGVRSHVPHTESVLMNSETVSRWRYLGVADREFKAESFDNLHDFESDALDLLITDGELRIEQERIRLDVAVEEIEKVIRG
notes: MksG of Corynebacterium glutamicum (cg3103), amplified from pMG003 and subcloned into a pET28 derivative with an N-terminal 6xHis-SUMO tag; The methods tell of no cleavage of the 6xHis-SUMO tag before crystallization; also called 6xHis-SUMO-MksG; source: E. coli BL21 C41, purified (Ni-NTA, SEC)
stoichiometry N [3]: 2

The remaining lines, values ahead:

Kd [1]: 4.94 µM
koff [1]: 0.138 s⁻¹
kon [1]: 27800 M⁻¹ s⁻¹
Kd [2]: 2.17 µM
koff [2]: 0.16 s⁻¹
kon [2]: 74200 M⁻¹ s⁻¹
Molecule: MksF (His6-MksF), kleisin subunit of the Corynebacterium glutamicum MksBEFG complex (from UniProt Q8NLY0 1-495) (natural protein)

Kd [4]: 6 µM
koff [4]: 0.136 s⁻¹
kon [4]: 22500 M⁻¹ s⁻¹
B2: MksG (His6-MksG), nuclease subunit of the Corynebacterium glutamicum MksBEFG complex (enzyme)
chain: MPLFIDDALHRSKKYFHAHLSELLLGEFAGLSLPLHPPTAAKAAADIDATREFIRQWEGRDDVEYAIRNWSPVGLGKTEVPVRLTLNTTEELVVFAQVEDEWSSLHERFSQLSGFTAEVVAKHVSLWRSLSNDDLSKAVLVVDWFLKHPNSGLLKRAVAVEGVHTKWLENHRVLIETLVADKRGEPGRADLGLGDAEARVRLRFHSVDAPAGLTDIEVPLSNLCELQEPQVILMVENLDSFLALPTWPGVTIAWGAGYRAVDIVRGPYFSNGRLLYWGDLDLDGFKILDGVRSHVPHTESVLMNSETVSRWRYLGVADREFKAESFDNLHDFESDALDLLITDGELRIEQERIRLDVAVEEIEKVIRG
notes: MksG of Corynebacterium glutamicum, gene mksG (cg3103), amplified from genomic DNA and ligated NdeI/BamHI into pET28a (plasmid pMG003); Biotinylated (EZ-Link NHS-PEG4, ratio 3:1) where used as bait in BLI; The methods speak of 'dimeric MksG'; also called cg3103; source: E. coli BL21 (DE3) pLysS, purified (Ni-NTA, SEC)
